{
  "source": "patent US20180000768A1",
  "about": "“INTESTINAL FXR AGONISM ENHANCES GLP-1 SIGNALING TO RESTORE PANCREATIC BETA CELL FUNCTIONS” (Salk Institute for Biological Studies, priority 2015, published 2018)",
  "key": {"[1]": {"tested_on": "Leptin-deficient ob/ob mice", "assay": "metabolic phenotype and glucose homeostasis of treated ob/ob mice", "assay_type": "in vivo, mouse", "conditions": "FGF15 treatment for 2 weeks", "protocol": "Leptin-deficient ob/ob mice were purchased from Jackson laboratory (stock no. 000632). Each mouse consumed 100 mg per kg of body weight Fex (in corn oil) per day by oral gavage for 5 weeks. For in vivo analog study, each mouse consumed 50 mg per kg of body weight Fex-D (in corn oil) per day by oral gavage for 14 days. For GLP-1 receptor antagonist study, each mouse was daily treated with 100 μg per kg of body weight Exendin 9-39 amide (Abcam) via intraperitoneal injection for 2 weeks. For INT-777 study, each mouse was daily gavaged with 60 mg per kg of body weight INT-777 (in corn oil) for 5 weeks. […] Core body temperature was measured with a clinical rectal thermometer (Thermalert model TH-5; Physitemp). […] Tail blood was drawn at indicated time intervals, and blood glucose level was measured with a One Touch Ultra glucometer (LifeScan). Body composition was measured with Echo MRI-100 body composition analyzer (Echo Medical Systems). […]\nReal-time metabolic analyses were conducted in a Comprehensive Lab Animal Monitoring System (Columbus Instruments). CO2 production, O2 consumption, RQ (relative rates of carbohydrate versus fat oxidation) and ambulatory counts were determined for 4 consecutive days and nights, with at least 24-h for adaptation before data recording. […]"}, "[2]": {"tested_on": "ob/ob mice", "assay": "gene expression (RNA-Seq, QPCR) in tissues of treated ob/ob mice", "assay_type": "in vivo, mouse", "conditions": "FGF15 injection", "protocol": "Total RNA was isolated from cell pellets treated with RNAlater using the RNA mini kit (Qiagen) and treated with DNaseI (Qiagen) for 30 minutes at room temperature. Sequencing libraries were prepared from 100-500 ng total RNA using the TruSeq RNA Sample Preparation Kit v2 (Illumina) according to the manufacturer's protocol. Briefly, mRNA was purified, fragmented, and used for first-, then second-strand cDNA synthesis followed by adenylation of 3′ ends. Samples were ligated to unique adapters and subjected to PCR amplification. Mulitplexed libraries were then validated using the 2100 BioAnalyzer (Agilent), normalized, and pooled for sequencing. RNA-Seq libraries prepared from two biological replicates for each experimental condition were sequenced on the Illumina HiSeq 2500 using bar-coded multiplexing and a 100 bp read length.\nImage analysis and base calling were performed with Illumina CASAVA-1.8.2. This yielded a median of 29.9M usable reads per sample. Short read sequences were mapped to a UCSC mm9 reference sequence using the RNA-seq aligner STAR. Known splice junctions from mm9 were supplied to the aligner and de novo junction discovery was also permitted. […] Transcript expression was calculated as gene-level relative abundance in fragments per kilobase of exon model per million mapped fragments and employed correction for transcript abundance bias. […]"}, "[3]": {"tested_on": "isolated islets", "assay": "gene expression after direct ex vivo treatment of isolated islets", "assay_type": "cell-based, mouse", "conditions": "24 hours ex vivo, XL335 1 μM, Fex 1 μM", "protocol": "Leptin-deficient ob/ob mice were treated daily with vehicle, Fex, or the analogue Fex-D (50 mg/kg) via P.O. for 14 days (A) Chemical structures of fexaramine and Fex-D (B) Schematic of the experimental design (C) Serum glucose levels (D) Glucose tolerance test (E) Insulin secretion in vivo (F) GLP-1 secretion in vivo (G) Heatmap showing hierarchal clustering of gene expression changes in islet induced by Fex (100 mg/kg, 4 wks) and FexD (50 mg/kg, 2 weeks) treatment in ob/ob mice (in vivo); by treatment of islets with XL335 (1 μM), Fex (1 μM), mFgf15 and hFgf19 (24 hours ex vivo); and mFgf15 (0.15 mg/kg, 2 weeks) and INT777 (Tgr5, 60 mg/kg, 4 weeks) treatment of ob/ob mice (in vivo). Gene expression was measured by RNA-Seq and changes are expressed as Z-score. (H) Ven diagram of changes in gene expression in pancreatic islets induced by FEX (100 mg/kg for 5 weeks) and FEX-D (50 mg/kg for 14 days). […] Data represent the mean±STD. Statistical analysis was performed with the Student's t test. *p<0.05, **p<0.01.\nNext, primary islets were isolated from mice treated by Fex-D to compare gene expression changes."}},
  "data": [
    {"molecule": "FGF15: FGF15 protein injected in ob/ob mice or applied to islets (protein, UniProt O35622 26-218, looked up) Fibroblast growth factor 15: RPLAQQSQSVSDEDPLFLYGWGKITRLQYLYSAGPYVSNCFLRIRSDGSVDCEEDQNERNLLEFRAVALKTIAIKDVSSVRYLCMSADGKIYGLIRYSEEDCTFREEMDCLGYNQYRSMKHHLHIIFIQAKPREQLQDQKPSNFIPVFHRSFFETGDQLRSKMFSLPLESDSMDPFRMVEDVDHLVKSPSFQK", "values": [
      {"measurement": "blood glucose levels", "setting": "[1]", "value": "significantly reduced"},
      {"measurement": "glucose uptake in the skeletal muscle", "setting": "[1]; soleus", "value": "without affecting"},
      {"measurement": "reg family gene expression in islets", "setting": "[2]", "value": "upregulated"},
      {"measurement": "transcriptional changes seen in islets in vivo with Fex and Fex-D", "setting": "[3]", "value": "not observed"}
    ]}
  ]
}
